Holding throughout (assay): AUC
Assay [1] concerns the target Bac-Cys-ELP1.
In assay [2] the target is Bac-Cys-ELP1. The source holds these as a separate data set.
The target in assay [3] is SynB1-Cys-ELP1.
For assay [4], the target named is SynB1-Cys-ELP1. The source holds these as a separate data set.

Read-outs that look alike come from different tables or passages of the source.

Regarding Bac-Cys-ELP1, the figures for the Ka in assay [1] and in assay [2] were 552 M⁻¹ and 1290 M⁻¹, respectively.
On to SynB1-Cys-ELP1, for which the Ka in assay [3] was found to be 597 M⁻¹; in assay [4], 1480 M⁻¹.
